Assay results reported in patent US20100260668A1 (published 2010).

Assays:
[1] = target: T1, human DLL4 extracellular domain (human, UniProt Q9NR61 27-529, biotin label in the Notch-1 competition ELISA (sites not given)); test: cell-based or functional assay
[2] = target: T2, human DLL4 on 293G-human DLL4 cells (human, UniProt Q9NR61 27-685); test: FACS: inhibition of Notch1 binding to 293G-human DLL4 cells (competitor Notch1)
T2 construct: whole, on cells; no method paragraph describes this FACS assay

[3] = target: T1, human DLL4 extracellular domain; test: competition ELISA: 14 nM biotin-labelled human DLL4 ECD pre-mixed with DVD-Ig, then on coated human Notch-1 (competitor Notch-1)
biotinylated VEGF = biotinylated VEGF (UniProt P15692-4 27-191, limits assumed, biotinylated); test: VEGF capture ELISA, DVD-Ig captured by anti-human Fc, biotinylated VEGF
[4] = target: T3, biotin-labeled human DLL4 extracellular domain (human, UniProt Q9NR61 27-529, biotin-labeled); test: DLL4 capture ELISA, DVD-Ig captured by anti-human Fc, biotin-labeled human DLL4 ECD
T3 construct: extracellular domain

[5] = target: T4, DLL4 ECD/His tag (R&D 1506-D4-050) (UniProt Q9NR61 27-529); test: direct bind ELISA, DLL4 on plate; DLL4 VD C-term.; HC Long, LC Long
T4 construct: extracellular domain; Bought antigen coated on the ELISA plate; not shown: His tag

[6] = target: T4, DLL4 ECD/His tag (R&D 1506-D4-050); test: direct bind ELISA, DLL4 on plate; DLL4 VD C-term.; HC Long, LC Short

B1: DVD474 (VEGF (AB071) N-terminal / DLL4 (seq. 1) C-terminal DVD-Ig, long HC linker, long LC linker) (bispecific antibody, human IgG1, kappa)
heavy: not shown
light: DIQMTQSPSSLSASVGDRVTITCRASQVIRRSLAWYQQKPGKAPKLLIYAASNLASGVPSRFSGSGSGTDFTLTISSLQPEDFATYYCQQSNTSPLTFGQGTKVEIKRTVAAPSVFIFPPDIQMTQSPSSLSASVGDRVTITCRASQDVSTAVAWYQQKPGKAPKLLIYSASFLYSGVPSRFSGSGSGTDFTLTISSLQPEDFATTYYCQQSYTGTVTFGQGTKVEIKRTVAAPSVFIFPPSDEQLKSGTASVVCLLNNFYPREAKVQWKVDNALQSGNSQESVTEQDSKDSTYSLSSTLTLSKADYEKHKVYACEVTHQGLSSPVTKSFNRGEC
notes: also called DVD474H/DVD474L
- DVD-Ig Inhibition of sFlt1 (IC50, nM) [1]: 0.93 nM
- IC50 [2]: 27.5 nM
- IC50 [3]: 2.3 nM

B2: DVD486 (bispecific antibody, human IgG1, kappa)
heavy: not shown
light: B1 light
notes: DVD-Ig, HC short / LC long; DLL4 domain C-terminal; also called VEGF / DLL4 DVD-Ig; DVD486H
- EC50 (biotinylated VEGF): 0.53 nM
- EC50 [4]: 0.16 nM

B3: DVD474 (bispecific antibody, human IgG1, kappa)
heavy: not shown
light: B1 light
notes: DVD-Ig, HC long / LC long; DLL4 domain C-terminal; also called VEGF / DLL4 DVD-Ig; DVD474H
- EC50 (biotinylated VEGF): 1.65 nM
- EC50 [4]: 0.14 nM

B4: DVD486 (VEGF (AB071) N-terminal / DLL4 (seq. 1) C-terminal DVD-Ig, short HC linker, long LC linker) (bispecific antibody, human IgG1, kappa)
heavy: not shown
light: B1 light
notes: also called DVD486H/DVD486L
- DVD-Ig Inhibition of sFlt1 (IC50, nM) [1]: 0.7 nM
- IC50 [2]: 10.2 nM
- IC50 [3]: 2.91 nM

B5: DVD474 (bispecific antibody, human IgG1, kappa)
heavy: not shown
light: B1 light
notes: DVD-Ig; outer AB071 (VEGF), inner AB015 (DLL4); HC long, LC long linker; also called DVD474H; DVD474L
- EC50 [5]: 0.57 nM

B6: DVD476 (bispecific antibody, human IgG1, kappa)
heavy: not shown
light: DIQMTQSPSSLSASVGDRVTITCSASQDISNYLNWYQQKPGKAPKVLIYFTSSLHSGVPSRFSGSGSGTDFTLTISSLQPEDFATYYCQQYSTVPWTFGQGTKVEIKRTVAAPDIQMTQSPSSLSASVGDRVTITCRASQDVSTAVAWYQQKPGKAPKLLIYSASFLYSGVPSRFSGSGSGTDFTLTISSLQPEDFATTYYCQQSYTGTVTFGQGTKVEIKRTVAAPSVFIFPPSDEQLKSGTASVVCLLNNFYPREAKVQWKVDNALQSGNSQESVTEQDSKDSTYSLSSTLTLSKADYEKHKVYACEVTHQGLSSPVTKSFNRGEC
notes: DVD-Ig; HC long, LC short linker; also called DVD476H; DVD476L
- EC50 [6]: 0.3 nM

B7: DVD518 (bispecific antibody, human IgG1, kappa, lambda)
heavy: not shown
light: DIQMTQSPSSLSASVGDRVTITCSASQDISNYLNWYQQKPGKAPKVLIYFTSSLHSGVPSRFSGSGSGTDFTLTISSLQPEDFATYYCQQYSTVPWTFGQGTKVEIKRTVAAPSVFIFPPQAVVTQESALTTSPGETVTLTCRSSTGAVTTSNYANWVQEKPDHLFTGLIGGTNNRAPGVPARFSGSLIGDKAALTITGAQTEDEAIYFCALWYSNHWVFGGGTKLTVLGQPKAAPSVTLFPPSSEELQANKATLVCLISDFYPGAVTVAWKADSSPVKAGVETTTPSKQSNNKYAASSYLSLTPEQWKSHRSYSCQVTHEGSTVEKTVAPTECS
notes: DVD-Ig; HC long, LC long linker; also called DVD518H; DVD518L
- EC50 [5]: 5.9 nM

B8: DVD452 (bispecific antibody, human IgG1, kappa, L234A L235A)
heavy: not shown
light: DIQMTQSPSSLSASVGDRVTITCRASQVIRRSLAWYQQKPGKAPKLLIYAASNLASGVPSRFSGSGSGTDFTLTISSLQPEDFATYYCQQSNTSPLTFGQGTKVEIKRTVAAPSVFIFPPDIVMTQSPDSLAVSLGERATISCRASESVDNYGISFMKWFQQKPGQPPKLLIYAASNQGSGVPDRFSGSGSGTDFTLTISSLQAEDVAVYYCQQSKEVPWTFGGGTKVEIKRTVAAPSVFIFPPSDEQLKSGTASVVCLLNNFYPREAKVQWKVDNALQSGNSQESVTEQDSKDSTYSLSSTLTLSKADYEKHKVYACEVTHQGLSSPVTKSFNRGEC
notes: DVD-Ig; outer AB071 (VEGF), inner AB069 (DLL4); HC long, LC long linker; also called DVD452H; DVD452L
- EC50 [5]: 0.34 nM

B9: DVD485 (DLL4 (seq. 1) N-terminal / VEGF (AB071) C-terminal DVD-Ig, short HC linker, long LC linker) (bispecific antibody, human IgG1, kappa)
heavy: not shown
light: DIQMTQSPSSLSASVGDRVTITCRASQDVSTAVAWYQQKPGKAPKLLIYSASFLYSGVPSRFSGSGSGTDFTLTISSLQPEDFATTYYCQQSYTGTVTFGQGTKVEIKRTVAAPSVFIFPPDIQMTQSPSSLSASVGDRVTITCRASQVIRRSLAWYQQKPGKAPKLLIYAASNLASGVPSRFSGSGSGTDFTLTISSLQPEDFATYYCQQSNTSPLTFGQGTKVEIKRTVAAPSVFIFPPSDEQLKSGTASVVCLLNNFYPREAKVQWKVDNALQSGNSQESVTEQDSKDSTYSLSSTLTLSKADYEKHKVYACEVTHQGLSSPVTKSFNRGEC
notes: also called DVD485H/DVD485L
- DVD-Ig Inhibition of sFlt1 (IC50, nM) [1]: 6.67 nM
- IC50 [2]: 6.3 nM
- IC50 [3]: 3.44 nM

B10: DVD485 (bispecific antibody, human IgG1, kappa)
heavy: not shown
light: B9 light
notes: DVD-Ig, HC short / LC long; DLL4 domain N-terminal; also called DLL4 / VEGF DVD-Ig; DVD485H
- EC50 (biotinylated VEGF): 2.5 nM
- EC50 [4]: 5.45 nM

B11: DVD498 (bispecific antibody, human IgG1, kappa)
heavy: not shown
light: DIQMTQSPSSLSASVGDRVTITCRASQVIRRSLAWYQQKPGKAPKLLIYAASNLASGVPSRFSGSGSGTDFTLTISSLQPEDFATYYCQQSNTSPLTFGQGTKVEIKRTVAAPSVFIFPPDIQMTQSSSYLSVSLGGRVTITCKASDHINNWLAWYQQKPGNAPRLLISGATSLETGVPSRFSGSGSGKDYTLSITSLQTEDVATYYCQQYWSIPLTFGAGTKLELKRTVAAPSVFIFPPSDEQLKSGTASVVCLLNNFYPREAKVQWKVDNALQSGNSQESVTEQDSKDSTYSLSSTLTLSKADYEKHKVYACEVTHQGLSSPVTKSFNRGEC
notes: DVD-Ig; outer AB071 (VEGF), inner AB072 (DLL4); HC long, LC long linker; also called DVD498H; DVD498L
- EC50 [5]: 0.45 nM

B12: DVD470 (bispecific antibody, human IgG1, kappa)
heavy: not shown
light: DIQMTQSPSSLSASVGDRVTITCSASQDISNYLNWYQQKPGKAPKVLIYFTSSLHSGVPSRFSGSGSGTDFTLTISSLQPEDFATYYCQQYSTVPWTFGQGTKVEIKRTVAAPSVFIFPPDIQMTQSPSSLSASVGDRVTITCRASQDVSTAVAWYQQKPGKAPKLLIYSASFLYSGVPSRFSGSGSGTDFTLTISSLQPEDFATTYYCQQSYTGTVTFGQGTKVEIKRTVAAPSVFIFPPSDEQLKSGTASVVCLLNNFYPREAKVQWKVDNALQSGNSQESVTEQDSKDSTYSLSSTLTLSKADYEKHKVYACEVTHQGLSSPVTKSFNRGEC
notes: DVD-Ig; HC long, LC long linker; also called DVD470H; DVD470L
- EC50 [5]: 0.19 nM

B13: DVD494 (bispecific antibody, human IgG1, kappa)
heavy: not shown
light: DIQMTQSPSSLSASVGDRVTITCSASQDISNYLNWYQQKPGKAPKVLIYFTSSLHSGVPSRFSGSGSGTDFTLTISSLQPEDFATYYCQQYSTVPWTFGQGTKVEIKRTVAAPSVFIFPPDIQMTQSSSYLSVSLGGRVTITCKASDHINNWLAWYQQKPGNAPRLLISGATSLETGVPSRFSGSGSGKDYTLSITSLQTEDVATYYCQQYWSIPLTFGAGTKLELKRTVAAPSVFIFPPSDEQLKSGTASVVCLLNNFYPREAKVQWKVDNALQSGNSQESVTEQDSKDSTYSLSSTLTLSKADYEKHKVYACEVTHQGLSSPVTKSFNRGEC
notes: DVD-Ig; HC long, LC long linker; also called DVD494H; DVD494L
- EC50 [5]: 39.5 nM

B14: DVD471 (bispecific antibody, human IgG1, kappa, L234A L235A)
heavy: not shown
light: DIQMTQSPSSLSASVGDRVTITCRASQDVSTAVAWYQQKPGKAPKLLIYSASFLYSGVPSRFSGSGSGTDFTLTISSLQPEDFATTYYCQQSYTGTVTFGQGTKVEIKRTVAAPSVFIFPPDIQMTQSPSSLSASVGDRVTITCRASQDVSTAVAWYQQKPGKAPKLLIYSASFLYSGVPSRFSGSGSGTDFTLTISSLQPEDFATYYCQQSYTTPPTFGQGTKVEIKRTVAAPSVFIFPPSDEQLKSGTASVVCLLNNFYPREAKVQWKVDNALQSGNSQESVTEQDSKDSTYSLSSTLTLSKADYEKHKVYACEVTHQGLSSPVTKSFNRGEC
notes: DVD-Ig, HC long / LC long; DLL4 domain N-terminal; also called DLL4 / VEGF DVD-Ig; DVD471H
- EC50 (biotinylated VEGF): 0.56 nM
- EC50 [4]: 0.17 nM

B15: DVD522 (bispecific antibody, human IgG1, kappa, lambda, L234A L235A)
heavy: not shown
light: DIQMTQSPSSLSASVGDRVTITCRASQVIRRSLAWYQQKPGKAPKLLIYAASNLASGVPSRFSGSGSGTDFTLTISSLQPEDFATYYCQQSNTSPLTFGQGTKVEIKRTVAAPSVFIFPPQAVVTQESALTTSPGETVTLTCRSSTGAVTTSNYANWVQEKPDHLFTGLIGGTNNRAPGVPARFSGSLIGDKAALTITGAQTEDEAIYFCALWYSNHWVFGGGTKLTVLGQPKAAPSVTLFPPSSEELQANKATLVCLISDFYPGAVTVAWKADSSPVKAGVETTTPSKQSNNKYAASSYLSLTPEQWKSHRSYSCQVTHEGSTVEKTVAPTECS
notes: DVD-Ig; outer AB071 (VEGF), inner AB073 (DLL4); HC long, LC long linker; also called DVD522H; DVD522L
- EC50 [5]: 0.48 nM
